US20200376136A1 (Regeneron, published 2020)
Residue numbers refer to the chain shown, from its start.

What was measured:
[1] = target: T1, human CD3 (human, UniProt P07766 23-207; P04234 22-171); assay: FACS titration on Jurkat cells (human CD3)
T1 construct: As expressed on Jurkat cells or human T cells within the T cell receptor complex; also called hCD3
Procedure: (§1) Flow cytometric analysis was utilized to determine binding of STEAP2×CD3 bispecific antibodies to Jurkat, PC3_STEAP2/1 chimeric and cynomolgus T cells, followed by detection with a phycoerythrin (PE)-labeled anti-human IgG antibody. […] After incubation, the cells were washed twice with cold PBS containing 1% filtered FBS and a PE-conjugated anti-human secondary antibody was added to the cells and incubated for an additional 30 minutes. Wells containing no antibody or secondary antibody only were used as a control. After incubation, cells were washed, re-suspended in 200 μL cold PBS containing 1% filtered FBS and analyzed by flow cytometry on a BD FACS Canto II.

[2] = target: T2, human six-transmembrane epithelial antigen of prostate 2 (STEAP2) (human, UniProt Q8NFT2 1-490); assay: cell-based or functional assay
T2 sequence: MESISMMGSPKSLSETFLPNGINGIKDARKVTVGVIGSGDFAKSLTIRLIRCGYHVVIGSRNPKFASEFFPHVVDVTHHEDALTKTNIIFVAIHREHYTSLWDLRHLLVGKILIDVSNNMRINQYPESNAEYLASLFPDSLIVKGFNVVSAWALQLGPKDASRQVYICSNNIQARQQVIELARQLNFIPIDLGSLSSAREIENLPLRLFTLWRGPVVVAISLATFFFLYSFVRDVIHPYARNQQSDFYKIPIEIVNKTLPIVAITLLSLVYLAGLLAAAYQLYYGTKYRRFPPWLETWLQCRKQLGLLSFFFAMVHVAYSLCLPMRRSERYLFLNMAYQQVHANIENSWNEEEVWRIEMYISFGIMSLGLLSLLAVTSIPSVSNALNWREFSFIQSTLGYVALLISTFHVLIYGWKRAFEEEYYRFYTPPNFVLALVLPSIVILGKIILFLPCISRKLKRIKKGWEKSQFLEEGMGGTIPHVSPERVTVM

[3] = target: T1, human CD3; assay: cell-based or functional assay
[4] = target: T1, human CD3; assay: cell-based or functional assay; remark: listed apart in the source
[5] = target: T3, STEAP2/1 chimeric construct; assay: FACS titration on PC3 cells expressing the STEAP2/1 chimera
T3 construct: Expressed on engineered PC3 human prostate cancer cells; also called PC3_STEAP2/1
Procedure: as §1

[6] = target: T2, human six-transmembrane epithelial …; assay: FACS titration on C4-2 cells (endogenous STEAP2), 4-parameter fit
Procedure: (§2) Briefly, 1×10⁵ cells were incubated with 10 μg/ml of anti STEAP2 antibodies, or isotype control antibodies for 30 min on ice in antibody dilution buffer. Following one wash with antibody dilution buffer, cells were incubated with 10 μg/ml of PE conjugated anti-human or antimouse Fc secondary antibodies for 30 min on ice. Following one additional wash, samples were incubated with Cytofix (1% formaldehyde) for 20 minutes. After one final wash, samples were filtered through a Pall 96 well filtration block, run on a Hypercyt® cytometer and analyzed in ForeCyt™ (IntelliCyt, Albuquerque, N. Mex.). Mean fluorescence intensities (MFI) were expressed as fold change above unstained levels (background). The average fold above background at antibody concentrations of 100-300 nM were determined.

[7] = target: T2, human six-transmembrane epithelial …; assay: FACS on C4-2 cells (endogenous STEAP2), MFI fold above unstained, average at 100-300 nM antibody
Procedure: as §2

[8] = target: T1, human CD3; assay: FACS titration of Jurkat cells
[9] = target: T1, human CD3; assay: FACS assays

T1 sequence (P07766 23-207 limits assumed, chain 1 of 2): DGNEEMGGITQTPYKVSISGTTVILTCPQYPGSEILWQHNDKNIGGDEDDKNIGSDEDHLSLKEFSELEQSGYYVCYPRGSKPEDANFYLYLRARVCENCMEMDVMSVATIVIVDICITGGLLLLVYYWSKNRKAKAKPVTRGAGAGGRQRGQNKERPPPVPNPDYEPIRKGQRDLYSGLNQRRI
T1 sequence (P04234 22-171 limits assumed, chain 2 of 2): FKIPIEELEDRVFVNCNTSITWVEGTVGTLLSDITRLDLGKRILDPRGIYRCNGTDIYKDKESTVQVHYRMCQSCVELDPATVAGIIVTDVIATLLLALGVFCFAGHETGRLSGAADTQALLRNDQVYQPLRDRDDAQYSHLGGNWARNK

B1: BSSTEAP2/CD3-004 (bispecific antibody, IgG4, V domains shown)
VH 1: QVQLVESGGGVVQPGRSLRLSCVASGFTISSYGMNWVRQAPGKGLEWVAVISYDGGNKYSVDSVKGRFTISRDNSKNTLYLQMNSLRAEDSAVYYCARGRYFDLWGRGTLVTVSS
VH 2: EVQLVESGGGLVQPGRSLRLSCAASGFTFADYTMHWVRQGPGTGLEWVSDIGWSGGSLGYADSVKGRFTISRDNAKNSLYLEMNNLRPEDTALYYCVKDKSGYGKFQYGLDVWGQGTTVTVSS
VL: DIQMTQSPSTLSASVGDRVTITCRASQSISSWLAWYQQKPGRAPNLLISKASSLKSGVPSRFSGSGSGTEFTLTVSSLQPDDFATYYCQQYYSYSYTFGQGTKLEIK
EC50 [1]: 0.688 nM | C4-2 cells depletion EC50 [2]: 3.11 pM | T cells activation EC50 [M] (CD69+ of CD2+ T cells) [3]: 9.4e-13 M | hPBMC Proliferation [M] (EC50, with anti-CD28) [4]: 7.1e-13 M | EC50 [5]: 79.1 nM

B2: BSSTEAP2/CD3-005 (bispecific antibody, IgG4, V domains shown)
VH 1: QVQLQQSGPGLVKPSQTLSLTCAISGDSVSSNRAAWNWIRQSPSRGLQWLGRTYYRSKWYNDYAVSLRSRITINPVTSKNQVALHMNSVTPEDTAVYYCARAGIVVVPGPETFYYYDHGLDVWGQGTTVTVSS
VH 2: QVQLVESGGGLVHPGRSLRLSCAASGFKFDDYTMHWVRQAPGKGLEWVSDISWNSGSKGYADSVKGRFTISRDNAKDSLYLQMDSLRAADTAFYYCAKDKSGYGHFYYYAMDVWGQGTTVTVSS
VL: DIQMTQSPSSLSASVGDRVTITCRASQSIRSYLNWYQQKPGKAPELLIHAASSLQSGVPSRFSGSGSGTDFTLTISSLQPEDFASYYCQQSYSAPPITFGQGTRLEIK
EC50 [1]: 14.1 nM | C4-2 cells depletion EC50 [2]: 7.29 pM | hPBMC Proliferation [M] (EC50, with anti-CD28) [4]: 2.76e-12 M | EC50 [5]: 31.8 nM

B3: BSSTEAP2/CD3-009 (bispecific antibody, IgG4, V domains shown)
VH 1: B2 VH 1 with A23V, S31T, R33S, Q48E, L67V, M86L, F113Y, D117Y
VH 2: B2 VH 2
VL: B2 VL with S28N, E45K, A50V, S85T, A94T, Q101H
EC50 [1]: 4.14 nM | C4-2 cells depletion EC50 [2]: 2.73 pM | hPBMC Proliferation [M] (EC50, with anti-CD28) [4]: 3.68e-13 M | EC50 [5]: 42.1 nM

B4: BSSTEAP2/CD3-007 (bispecific antibody, V domains shown)
VH 1: B2 VH 1
VH 2: EVQLVESGGGLVQPGRSLRLSCAASGFTFADYTMHWVRQAPGKGLEWVSDISWNSGSIAYADSVKGRFTISRDNAKNSLYLQMNSLRTEDTAFYYCAKDSRGYGHYKYLGLDVWGQGTTVTVSS
VL: B2 VL
EC50 [1]: 0.615 nM | C4-2 cells depletion EC50 [2]: 8.11 pM | hPBMC Proliferation [M] (EC50, with anti-CD28) [4]: 8.26e-11 M | EC50 [5]: 5.37 nM

B5: BSSTEAP2/CD3-001 (bispecific antibody, IgG4, V domains shown)
VH 1: B2 VH 1
VH 2: EVQLVESGGGLVQPGRSLRLSCAASGFTFDDYSMHWVRQAPGKGLEWVSGISWNSGSKGYADSVKGRFTISRDNAKNSLYLQMNSLRAEDTALYYCAKYGSGYGKFYHYGLDVWGQGTTVTVSS
VL: B2 VL
EC50 [1]: 7.19 nM | C4-2 cells depletion EC50 [2]: 4.68 pM | T cells activation EC50 [M] (CD69+ of CD2+ T cells) [3]: 1.61e-12 M | hPBMC Proliferation [M] (EC50, with anti-CD28) [4]: 1.6e-10 M | EC50 [5]: 3.44 nM

B6: H2M11164N (antibody, mouse IgG2, V domains shown)
VH: B2 VH 1 with A23V, S31T, R33S, Q48E, L67V, M86L, F113Y, D117Y
VL: B2 VL with S28N, E45K, A50V, S85T, A94T, Q101H
EC50 [6]: 3.7 nM | Avg F.A.B (fold above background) [7]: 360 fold above background

B7: H2M11162N (antibody, mouse IgG2, V domains shown)
VH: B2 VH 1
VL: B2 VL
EC50 [6]: 4.9 nM | Avg F.A.B (fold above background) [7]: 365 fold above background

B8: BSSTEAP2/CD3-008 (bispecific antibody, IgG4, V domains shown)
VH 1: QVQLQQSGPGLVKPSQALSLTCAISGDSVSSNSAAWNWIRQSPSRGLEWLGRTYYRSKWYNDYAVSVKSRITINPDTSKNHFSLHLNSMTPEDTAVYYCARARIVVVPGPEVYYYYYYDMDVWGQGTTVTVSS
VH 2: B2 VH 2
VL: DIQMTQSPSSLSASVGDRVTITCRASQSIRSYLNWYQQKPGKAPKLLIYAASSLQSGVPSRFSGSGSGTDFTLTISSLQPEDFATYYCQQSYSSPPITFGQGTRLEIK
EC50 [1]: 1.52 nM | C4-2 cells depletion EC50 [2]: 4.11 pM | hPBMC Proliferation [M] (EC50, with anti-CD28) [4]: 7.76e-12 M | EC50 [5]: 68.8 nM

B9: BSSTEAP2/CD3-006 (bispecific antibody, V domains shown)
VH 1: B2 VH 1
VH 2: B5 VH 2 with A23V, G59D
VL: B2 VL
EC50 [1]: 3.98 nM | C4-2 cells depletion EC50 [2]: 3.93 pM | hPBMC Proliferation [M] (EC50, with anti-CD28) [4]: 8.14e-13 M | EC50 [5]: 12.2 nM

B10: H1M11243N (antibody, mouse IgG1, V domains shown)
VH: B8 VH 1 with A17T, H81Q, M89V, R103G, E111D, V112I, D119G
VL: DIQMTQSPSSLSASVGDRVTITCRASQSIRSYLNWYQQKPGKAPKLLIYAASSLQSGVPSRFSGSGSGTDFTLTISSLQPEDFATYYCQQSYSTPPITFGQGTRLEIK
EC50 [6]: 23 nM | Avg F.A.B (fold above background) [7]: 116 fold above background

B11: H2M11163N (antibody, mouse IgG2, V domains shown)
VH: B8 VH 1
VL: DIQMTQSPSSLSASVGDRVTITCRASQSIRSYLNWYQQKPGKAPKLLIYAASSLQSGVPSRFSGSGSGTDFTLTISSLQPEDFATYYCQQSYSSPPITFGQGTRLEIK
EC50 [6]: 13 nM | Avg F.A.B (fold above background) [7]: 256 fold above background

B12: CD3-VH-P (antibody, V domains shown)
VH: B5 VH 2 with A23V, G59D
VL: DIQMTQSPSSLSASVGDSVTITCRASQSINNYLNWYQQKPGKAPKLLIYTASSLLSGVPSRFSGSGSGTDFTLTISGLHPEDFATYFCQQSFSTPPITFGQGTRLDIK
notes: Anti-CD3 antibody from a genetically modified mouse
EC50 [8]: 1 to 40 nM

B13: CD3-VH-G (antibody, V domains shown)
VH: B5 VH 2
VL: B12 VL
notes: CD3-VH-P engineered to germline frameworks
binding result [9]: binds
